# Test results from US20080026996A1, “Selective Vpac2 Receptor Reptide Agonists” (ELI LILLY AND COMPANY, priority 2004, published 2008).
# Where no end group is shown, it is not given here. [ ]: non-standard residue; d: D form. The star is where a group is joined. Orn = NCCC[C@H](N)C(=O)O; Hexanoyl = CCCCCC(=O)*; Aib = CC(C)(N)C(=O)O
# T1: rat VPAC2 receptor (rat, UniProt P35000 23-437)
# T1 sequence (looked up): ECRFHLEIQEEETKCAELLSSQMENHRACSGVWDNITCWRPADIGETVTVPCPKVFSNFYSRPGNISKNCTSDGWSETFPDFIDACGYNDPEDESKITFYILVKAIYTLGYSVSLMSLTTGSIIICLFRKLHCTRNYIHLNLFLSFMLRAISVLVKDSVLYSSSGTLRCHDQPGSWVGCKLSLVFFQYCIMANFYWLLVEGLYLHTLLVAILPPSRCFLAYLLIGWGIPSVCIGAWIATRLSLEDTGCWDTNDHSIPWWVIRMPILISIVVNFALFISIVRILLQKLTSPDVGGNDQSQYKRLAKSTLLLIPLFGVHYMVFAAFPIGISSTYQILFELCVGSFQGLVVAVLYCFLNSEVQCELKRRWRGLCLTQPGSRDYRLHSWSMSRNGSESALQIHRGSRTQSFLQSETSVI
# T2: rat VPAC1 receptor (rat, UniProt P30083 31-459)
# T2 sequence (looked up): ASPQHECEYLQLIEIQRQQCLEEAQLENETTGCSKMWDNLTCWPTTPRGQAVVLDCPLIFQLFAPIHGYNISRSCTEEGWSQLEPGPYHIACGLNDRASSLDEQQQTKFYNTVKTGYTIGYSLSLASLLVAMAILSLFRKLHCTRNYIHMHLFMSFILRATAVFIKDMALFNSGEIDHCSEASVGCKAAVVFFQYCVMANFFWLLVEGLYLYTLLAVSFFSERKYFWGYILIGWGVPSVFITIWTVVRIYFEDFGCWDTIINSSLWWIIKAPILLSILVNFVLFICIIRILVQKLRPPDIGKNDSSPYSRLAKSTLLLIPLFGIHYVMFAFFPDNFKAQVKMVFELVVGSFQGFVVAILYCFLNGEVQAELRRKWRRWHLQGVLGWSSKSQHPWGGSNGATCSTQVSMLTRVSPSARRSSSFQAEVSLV
# T3: human VPAC1 receptor (human, UniProt P32241 31-457)
# T3 sequence (looked up): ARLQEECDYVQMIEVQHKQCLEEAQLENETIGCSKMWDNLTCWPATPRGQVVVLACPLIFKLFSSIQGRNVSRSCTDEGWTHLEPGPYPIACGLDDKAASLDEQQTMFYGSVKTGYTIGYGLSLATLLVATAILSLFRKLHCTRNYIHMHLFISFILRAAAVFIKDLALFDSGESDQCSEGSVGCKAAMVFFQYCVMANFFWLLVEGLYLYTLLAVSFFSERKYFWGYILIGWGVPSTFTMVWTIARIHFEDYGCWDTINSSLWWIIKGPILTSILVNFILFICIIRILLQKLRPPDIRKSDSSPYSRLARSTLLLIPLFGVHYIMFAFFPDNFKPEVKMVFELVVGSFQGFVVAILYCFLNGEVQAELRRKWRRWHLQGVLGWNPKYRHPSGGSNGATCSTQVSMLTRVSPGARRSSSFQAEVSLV
# T4: human PAC1 receptor (human, UniProt P41586 21-468)
# T4 sequence (looked up): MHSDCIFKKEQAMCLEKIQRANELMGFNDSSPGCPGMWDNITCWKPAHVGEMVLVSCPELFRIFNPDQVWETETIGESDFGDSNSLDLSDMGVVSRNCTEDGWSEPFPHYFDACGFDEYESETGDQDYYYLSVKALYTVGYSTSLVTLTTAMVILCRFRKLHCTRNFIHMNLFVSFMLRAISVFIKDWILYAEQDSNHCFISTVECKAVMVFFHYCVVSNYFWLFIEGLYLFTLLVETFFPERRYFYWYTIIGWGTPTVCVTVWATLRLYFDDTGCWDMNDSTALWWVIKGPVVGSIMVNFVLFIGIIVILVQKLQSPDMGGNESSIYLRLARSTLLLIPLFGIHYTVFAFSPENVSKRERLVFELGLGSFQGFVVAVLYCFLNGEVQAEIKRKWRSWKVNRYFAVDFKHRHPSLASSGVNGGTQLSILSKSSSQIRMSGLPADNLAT
# T5: human VPAC2 receptor (human, UniProt P41587 24-438)
# T5 sequence (looked up): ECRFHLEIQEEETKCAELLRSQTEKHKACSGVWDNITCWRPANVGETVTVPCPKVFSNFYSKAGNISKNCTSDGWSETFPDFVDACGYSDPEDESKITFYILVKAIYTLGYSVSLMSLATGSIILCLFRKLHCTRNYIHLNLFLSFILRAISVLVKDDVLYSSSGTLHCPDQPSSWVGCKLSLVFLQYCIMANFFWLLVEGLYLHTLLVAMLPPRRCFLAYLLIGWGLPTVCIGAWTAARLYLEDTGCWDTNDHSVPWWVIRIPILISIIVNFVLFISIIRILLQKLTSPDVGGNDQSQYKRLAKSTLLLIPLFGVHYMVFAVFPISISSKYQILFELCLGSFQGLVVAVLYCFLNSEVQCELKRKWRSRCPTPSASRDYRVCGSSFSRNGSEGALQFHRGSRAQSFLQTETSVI
# Target: T1, rat VPAC2 receptor
# Assay: cell-based or functional assay
row,Binder,"EC50 cAMP, DiscoveRx [nM]"
1,"HSDAVFTDNYTXLRXQVAAXKYLQSIXXGGPSSGAPPPS (N-terminal hexanoyl (C6); Orn at 12; Aib at 15, 20; hR at 27, 28) [P335]",0.05
2,Hexanoyl-HSDAVFTDNYTRLRKQVAAK[Aib]YLQSIKNKRYGGPSSGAPPPS (ends and bridges not checked) [P170],0.15
3,Hexanoyl-HSDAVFTDNYTRLR[Aib]QVAAKKYLQSIKNKRYGGPSSGAPPPS (ends and bridges not checked) [P168],0.05
4,Hexanoyl-HSDAVFTDNYTRL[Aib]KQVAAK[Aib]YLQSIKNKRYGGPSSGAPPPS (ends and bridges not checked) [P244],1.85
5,Hexanoyl-HSDAVFTDNYTRL[Aib]KQLAA[Aib]KYLQSIKNKRYGGPSSGAPPPS (ends and bridges not checked) [P240],0.36
6,Hexanoyl-HSDAVFTDNYTRL[Aib]KQVAA[Aib]KYLQSIKNKRYGGPSSGAPPPS (ends and bridges not checked) [P242],0.46
7,Hexanoyl-HSDAVFTDNYTRLRQQVAAKKYLQSIKNKRYGGPSSGAPPPS [P177],0.1
8,Hexanoyl-HSDAVFTDNYTRLLAKVAAKKYLQSIKNKRYGGPSSGAPPPS [P135],0.05
9,Hexanoyl-HGEGTFTDNYTRLRKQVAAKKYLQSIKNKRYGGPSSGAPPPS [P222],34.9
10,Hexanoyl-HSDAVFTDNYTRLQKQVAAKKYLQSIKNKRYGGPSSGAPPPS [P172],0.11
11,Hexanoyl-HSDAVFTDNYTRLRKQVAAQKYLQSIKNKRYGGPSSGAPPPS [P150],0.1
12,"HSDAVFTDNYTXLRXQVAAXKYLQSIXNXGGPSSGAPPPS (N-terminal hexanoyl (C6); hR at 12, 27, 29; Aib at 15, 20) [P329]",0.15

# Target: T2, rat VPAC1 receptor
# Assay: cell-based or functional assay
row,Binder,"EC50 cAMP, DiscoveRx [nM]"
1,Hexanoyl-HSDAVFTDNYTRLRKQVAAKKYLQSIKNKKGGPSSGAPPPS [P121],0.66
2,"HSDAVFTDNYTXLRXQVAAXKYLQSIKNKRYGGPSSGAPPPS (N-terminal hexanoyl (C6); Orn at 12; Aib at 15, 20) [P344]",1.56
3,Hexanoyl-HSDAVFTDNYTRLR[Aib]QVAA[Aib][Orn]YLQSIKNKRYGGPSSGAPPPS (ends and bridges not checked) [P342],2.39
4,Hexanoyl-HSDAVFTDNYTRLR[Aib]QLAA[Aib]KYLQSIKNKRYGGPSSGAPPPS (ends and bridges not checked) [P291],1.12
5,Hexanoyl-HSDAVFTDNYTRLRKQMAAQKYLNQLKKGGPSSGAPPPS [P143],3.81
6,Hexanoyl-HSDAVFTDNYTR[Aib]R[Aib]QVAA[Aib]KYLQSIKNKRYGGPSSGAPPPS (ends and bridges not checked) [P346],3.02
7,Hexanoyl-HSDAVFTDNYTRLQKQVAAK[Aib]YLQSIKNKRYGGPSSGAPPPS (ends and bridges not checked) [P251],212
8,Hexanoyl-HSDAVFTDNYTRLRKQVAAKKYLQSIKQKGGPSSGAPPPS [P270],0.67
9,Hexanoyl-HSDAVFTDNYTRL[Aib]KQLAAK[Aib]YLQSIKNKRYGGPSSGAPPPS (ends and bridges not checked) [P241],61.1
10,Hexanoyl-HSDAVFTDNYTRL[Aib]KQVAAK[Aib]YLQSIKNKRYGGPSSGAPPPS (ends and bridges not checked) [P244],127
11,Hexanoyl-HSDAVFTDNYTRL[Aib]KQLAA[Aib]KYLQSIKNKRYGGPSSGAPPPS (ends and bridges not checked) [P240],24.5
12,Hexanoyl-HSDAVFTDNYTRL[Aib]KQVAA[Aib]KYLQSIKNKRYGGPSSGAPPPS (ends and bridges not checked) [P242],72.2
13,Hexanoyl-HSDAVFTDNYTRLRKQVAAKKYLQTIKNKRYGGPSSGAPPPS [P115],0.95
14,Hexanoyl-HGEGTFTDNYTRLRKQVAAKKYLQSIKNKRYGGPSSGAPPPS [P222],43.9
15,Hexanoyl-HSDAVFTDNYTRLRKQVAAKKYLQSIKNKRYGGPSSGAPPPC [P120],0.42
16,Hexanoyl-HSDAVFTDNYTRLRKQVAAKKYLQSIKNGGPSSGAPPPS [P154],0.85
17,MHSDAVFTDNYTRLLAKLALQKYLQSIKNKRYGGPSSGAPPPS (N-terminal methionine added (M-)) [P140],5.81

# Target: T3, human VPAC1 receptor
# Assay: cell-based or functional assay
row,Binder,"EC50 cAMP, DiscoveRx [nM]"
1,HSDAVFTDNYTRLRKQVAAKKYLQSIKNKIYGGPSSGAPPPS [P76],0.8

# Target: T4, human PAC1 receptor
# Assay: cell-based or functional assay
row,Binder,"EC50 cAMP, DiscoveRx [nM]"
1,HSDAVFTDNYTRLRKQVAAKKYLQSIKNKIYGGPSSGAPPPS [P76],15.9

# Target: T5, human VPAC2 receptor
# Assay: cell-based or functional assay
Binder,"EC50 cAMP, Alpha Screen [nM]","EC50 cAMP, DiscoveRx [nM]"
"HSDAVFTDNYTXLRXQVAAXKYLQSIXXGGPSSGAPPPS (N-terminal hexanoyl (C6); Orn at 12; Aib at 15, 20; hR at 27, 28) [P335]",0.22,–
Hexanoyl-HSDAVFTDNYTRLRKQVAAKKYLQSIKNKKGGPSSGAPPPS [P121],0.1,–
"HSDAVFTDNYTXLRXQVAAXKYLQSIKNKRYGGPSSGAPPPS (N-terminal hexanoyl (C6); Orn at 12; Aib at 15, 20) [P344]",0.13,–
HSDAVFTDNYTRLRKQVAAKKYLQSIKNKIYGGPSSGAPPPS [P76],–,3.88
Hexanoyl-HSDAVFTDNYTRLR[Aib]QVAA[Aib][Orn]YLQSIKNKRYGGPSSGAPPPS (ends and bridges not checked) [P342],0.21,–
Hexanoyl-HSDAVFTDNYTRLR[Aib]QLAA[Aib]KYLQSIKNKRYGGPSSGAPPPS (ends and bridges not checked) [P291],0.36,–
Hexanoyl-HSDAVFTDNYTRLRKQMAAQKYLNQLKKGGPSSGAPPPS [P143],0.1,–
Hexanoyl-HSDAVFTDNYTR[Aib]R[Aib]QVAA[Aib]KYLQSIKNKRYGGPSSGAPPPS (ends and bridges not checked) [P346],0.23,–
Hexanoyl-HSDAVFTDNYTRLRKQVAAK[Aib]YLQSIKNKRYGGPSSGAPPPS (ends and bridges not checked) [P170],0.18,–
Hexanoyl-HSDAVFTDNYTRLQKQVAAK[Aib]YLQSIKNKRYGGPSSGAPPPS (ends and bridges not checked) [P251],0.92,–
Hexanoyl-HSDAVFTDNYTRLR[Aib]QVAAKKYLQSIKNKRYGGPSSGAPPPS (ends and bridges not checked) [P168],0.27,–
Hexanoyl-HSDAVFTDNYTRLRKQVAAKKYLQSIKQKGGPSSGAPPPS [P270],0.13,–
Hexanoyl-HSDAVFTDNYTRL[Aib]KQLAAK[Aib]YLQSIKNKRYGGPSSGAPPPS (ends and bridges not checked) [P241],2.17,–
Hexanoyl-HSDAVFTDNYTRL[Aib]KQVAAK[Aib]YLQSIKNKRYGGPSSGAPPPS (ends and bridges not checked) [P244],2.03,–
Hexanoyl-HSDAVFTDNYTRL[Aib]KQLAA[Aib]KYLQSIKNKRYGGPSSGAPPPS (ends and bridges not checked) [P240],0.51,–
Hexanoyl-HSDAVFTDNYTRL[Aib]KQVAA[Aib]KYLQSIKNKRYGGPSSGAPPPS (ends and bridges not checked) [P242],0.8,–
Hexanoyl-HSDAVFTDNYTRLRKQVAAKKYLQTIKNKRYGGPSSGAPPPS [P115],0.2,–
Hexanoyl-HSDAVFTDNYTRLRQQVAAKKYLQSIKNKRYGGPSSGAPPPS [P177],0.21,–
Hexanoyl-HSDAVFTDNYTRLLAKVAAKKYLQSIKNKRYGGPSSGAPPPS [P135],0.18,–
Hexanoyl-HGEGTFTDNYTRLRKQVAAKKYLQSIKNKRYGGPSSGAPPPS [P222],0.51,–
Hexanoyl-HSDAVFTDNYTRLQKQVAAKKYLQSIKNKRYGGPSSGAPPPS [P172],0.29,–
Hexanoyl-HSDAVFTDNYTRLRKQVAAQKYLQSIKNKRYGGPSSGAPPPS [P150],0.18,–
Hexanoyl-HSDAVFTDNYTRLRKQVAAKKYLQSIKNGGPSSGAPPPS [P154],0.18,–
MHSDAVFTDNYTRLLAKLALQKYLQSIKNKRYGGPSSGAPPPS (N-terminal methionine added (M-)) [P140],0.07,–
